From patent publication US20240317834A1, “COMPOSITIONS AND METHODS FOR NEUROLOGICAL DISEASES” (CODA BIOTHERAPEUTICS, INC., priority 2020, published 2024)

Test system: Lenti-X 293T cells
Test: YFP fluorescence quenching anion reporter plate reader assay of engineered receptors stimulated with acetylcholine or a non-native ligand
Type: cell-based
Conditions: for percent quench of YFP fluorescence, 30 nM TC-6683: TC-6683 30 nM; for percent quench of YFP fluorescence, 300 nM TC-6683: TC-6683 300 nM; for percent quench of YFP fluorescence, 3 uM TC-6683: TC-6683 3 uM; for percent quench of YFP fluorescence, 30 uM TC-6683: TC-6683 30 uM; for percent quench of YFP fluorescence, 100 uM TC-6683: TC-6683 100 uM; for percent quench of YFP fluorescence, 10 uM ach: acetylcholine 10 uM; for percent quench of YFP fluorescence, 100 uM ach: acetylcholine 100 uM; for percent quench of YFP fluorescence, 1 mM ach: acetylcholine 1 mM; for percent quench of YFP fluorescence, 3 mM ach: acetylcholine 3 mM
Procedure, shortened: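 YFP quench was followed for about 1 min 43 s after ligand delivered in iodide-based ECS, pH 7.2. Values are end-of-read fluorescence (last 10 s) divided by the pre-ligand baseline (15 s). Cells were LX293T, transfected with receptor DNA a day before the assay.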

B1: CODA334: engineered chimeric LGIC receptor, L131Q in SEQ ID NO: 33 (protein)
chain: MRCSPGGVWLALAASLLHVSLQGEFQRKLYKELVKNYNPLERPVANDSQPLTVYFSLSLLQIMDVDEKNQVLTTNIWLQMSWTDHYLQWNVSEYPGVKTVRFPDGQIWKPDILLYNSADERFDATFHTNVQVNSSGHCQYLPPGIFKSSCPMDLKNFPMDVQTCKLKFGSWSYGGWSLDLQMQEADISGYIPNGEWDLVGIPGKRSERFYECCKEPYPDVTFTVTMRRRMGYYLIQMYIPSLLIVILSWISFWINMDAAPARVGLGITTVLTMTTQSSGSRASLPKVSYVKAIDIWMAVCLLFVFSALLEYAAVNFVSRQHKELLRFRRKRRHHKSPMLNLFQEDEAGEGRFNFSAYGMGPACLQAKDGISVKGANNSNTTNPPPAPSKSPEEMRKLFIQRAKKIDKISRIGFPMAFLIFNMFYWIIYKIVRREDVHNQ
modifications: synthetic sequence of chimeric LGIC
- YFP fluorescence quenching using CNL001 (1 nM CNL001, first column): 76.165%
- YFP fluorescence quenching using CNL001 (1 nM CNL001, second column): 78.463%
- YFP fluorescence quenching using TC-5619/Bradanicline (3 nM brd): 41.92%
- YFP fluorescence quenching using Varenicline (3 nM var, first column): −5.192
- YFP fluorescence quenching using Varenicline (3 nM var, second column): −4.327
- YFP fluorescence quenching using CNL001 (10 nM CNL001, first column): 79.349%
- YFP fluorescence quenching using CNL001 (10 nM CNL001, second column): 78.238%
- YFP fluorescence quenching using TC-5619/Bradanicline (30 nM brd): 63.65%
- YFP fluorescence quenching using Facinicline (30 nM fac): 83.07
- YFP fluorescence quenching using Varenicline (30 nM var, first column): −0.688
- YFP fluorescence quenching using Varenicline (30 nM var, second column): 0.672
- YFP fluorescence quenching using CNL001 (50 nM CNL001, first column): 80.221%
- YFP fluorescence quenching using CNL001 (50 nM CNL001, second column): 81.789%
- YFP fluorescence quenching using ABT-126 (50 nM abt): 23.65%
- YFP fluorescence quenching using CNL001 (100 nM CNL001, first column): 82%
- YFP fluorescence quenching using CNL001 (100 nM CNL001, second column): 80.766%
- YFP fluorescence quenching using CNL002 (100 nM CNL002): 49.9%
- YFP fluorescence quenching using ABT-126 (100 nM abt): 61.83%
- YFP fluorescence quenching using AZD-0328 (100 nM azd0328): 80.55%
- YFP fluorescence quenching using Facinicline (100 nM fac): 85.36
- YFP fluorescence quenching using ABT-126 (300 nM abt): 76.44%
- YFP fluorescence quenching using AZD-0328 (300 nM azd0328): 83.15%
- YFP fluorescence quenching using TC-5619/Bradanicline (300 nM brd): 64.85%
- YFP fluorescence quenching using Facinicline (300 nM fac): 84.19
- YFP fluorescence quenching using Varenicline (300 nM var, first column): 75.189
- YFP fluorescence quenching using Varenicline (300 nM var, second column): 74.923
- YFP fluorescence quenching using Varenicline (500 nM var, first column): 79.048
- YFP fluorescence quenching using Varenicline (500 nM var, second column): 80.337
- YFP fluorescence quenching using CNL001 (1 uM CNL001, first column): 81.707%
- YFP fluorescence quenching using CNL001 (1 uM CNL001, second column): 82.665%
- YFP fluorescence quenching using CNL002 (1 uM CNL002): 80.72%
- YFP fluorescence quenching using ABT-126 (1 uM abt): 77.68%
- YFP fluorescence quenching using TC-6987 (1 uM tc6987): 74.1
- YFP fluorescence quenching using Varenicline (1 uM var, first column): 79.766
- YFP fluorescence quenching using Varenicline (1 uM var, second column): 76.836
- YFP fluorescence quenching using TC-6987 (10 uM tc6987): 81.7
- YFP fluorescence quenching using CNL002 (30 uM CNL002): 80.97%
- YFP fluorescence quenching using AZD-0328 (30 uM azd0328): 82.53%
- YFP fluorescence quenching using Facinicline (30 uM fac): 82.75
- YFP fluorescence quenching using TC-6987 (500 uM tc6987): 80.18
- percent quench of YFP fluorescence, 30 nM TC-6683: −17.99%
- percent quench of YFP fluorescence, 300 nM TC-6683: −23.26%
- percent quench of YFP fluorescence, 3 uM TC-6683: −18.84%
- percent quench of YFP fluorescence, 30 uM TC-6683: −16.92%
- percent quench of YFP fluorescence, 100 uM TC-6683: −15.59%
- percent quench of YFP fluorescence, 10 uM ach: −2.63%
- percent quench of YFP fluorescence, 30 uM ach (acetylcholine 30 uM): 30.06%
- percent quench of YFP fluorescence, 100 uM ach: 71.27%
- percent quench of YFP fluorescence, 1 mM ach: 79.66%
- percent quench of YFP fluorescence, 3 mM ach: 74.9%

B2: CODA335: engineered chimeric LGIC receptor, L131T in SEQ ID NO: 33 (protein)
chain: MRCSPGGVWLALAASLLHVSLQGEFQRKLYKELVKNYNPLERPVANDSQPLTVYFSLSLLQIMDVDEKNQVLTTNIWLQMSWTDHYLQWNVSEYPGVKTVRFPDGQIWKPDILLYNSADERFDATFHTNVTVNSSGHCQYLPPGIFKSSCPMDLKNFPMDVQTCKLKFGSWSYGGWSLDLQMQEADISGYIPNGEWDLVGIPGKRSERFYECCKEPYPDVTFTVTMRRRMGYYLIQMYIPSLLIVILSWISFWINMDAAPARVGLGITTVLTMTTQSSGSRASLPKVSYVKAIDIWMAVCLLFVFSALLEYAAVNFVSRQHKELLRFRRKRRHHKSPMLNLFQEDEAGEGRFNFSAYGMGPACLQAKDGISVKGANNSNTTNPPPAPSKSPEEMRKLFIQRAKKIDKISRIGFPMAFLIFNMFYWIIYKIVRREDVHNQ
modifications: synthetic sequence of chimeric LGIC
- YFP fluorescence quenching using CNL001 (1 nM CNL001, first column): −9.942%
- YFP fluorescence quenching using CNL001 (1 nM CNL001, second column): −0.475%
- YFP fluorescence quenching using TC-5619/Bradanicline (1 nM brd): −2.39%
- YFP fluorescence quenching using TC-5619/Bradanicline (3 nM brd): −4.08%
- YFP fluorescence quenching using Varenicline (3 nM var, first column): 0.398
- YFP fluorescence quenching using Varenicline (3 nM var, second column): 3.947
- YFP fluorescence quenching using CNL001 (10 nM CNL001, first column): 17.889%
- YFP fluorescence quenching using CNL001 (10 nM CNL001, second column): 38.46%
- YFP fluorescence quenching using TC-5619/Bradanicline (10 nM brd): −3.3%
- YFP fluorescence quenching using TC-5619/Bradanicline (30 nM brd): −9.69%
- YFP fluorescence quenching using Facinicline (30 nM fac): 1.24
- YFP fluorescence quenching using Varenicline (30 nM var, first column): 5.31
- YFP fluorescence quenching using Varenicline (30 nM var, second column): 7.666
- YFP fluorescence quenching using CNL001 (50 nM CNL001, first column): 61.741%
- YFP fluorescence quenching using CNL001 (50 nM CNL001, second column): 69.159%
- YFP fluorescence quenching using ABT-126 (50 nM abt): −18%
- YFP fluorescence quenching using CNL001 (100 nM CNL001, first column): 73.635%
- YFP fluorescence quenching using CNL001 (100 nM CNL001, second column): 76.092%
- YFP fluorescence quenching using CNL002 (100 nM CNL002): −14.53%
- YFP fluorescence quenching using ABT-126 (100 nM abt): −16.39%
- YFP fluorescence quenching using AZD-0328 (100 nM azd0328): 11.33%
- YFP fluorescence quenching using TC-5619/Bradanicline (100 nM brd): −1.05%
- YFP fluorescence quenching using ABT-126 (300 nM abt): −15.05%
- YFP fluorescence quenching using AZD-0328 (300 nM azd0328): 44.15%
- YFP fluorescence quenching using TC-5619/Bradanicline (300 nM brd): 10.53%
- YFP fluorescence quenching using Facinicline (300 nM fac): 46.92
- YFP fluorescence quenching using Varenicline (300 nM var, first column): 4.327
- YFP fluorescence quenching using Varenicline (300 nM var, second column): 3.275
- YFP fluorescence quenching using Varenicline (500 nM var, first column): 1.835
- YFP fluorescence quenching using Varenicline (500 nM var, second column): 4.863
- YFP fluorescence quenching using CNL001 (1 uM CNL001, first column): 80.633%
- YFP fluorescence quenching using CNL001 (1 uM CNL001, second column): 79.637%
- YFP fluorescence quenching using CNL002 (1 uM CNL002): 6.45%
- YFP fluorescence quenching using ABT-126 (1 uM abt): −5.56%
- YFP fluorescence quenching using TC-5619/Bradanicline (1 uM brd): 34.72%
- YFP fluorescence quenching using TC-6987 (1 uM tc6987): −0.14
- YFP fluorescence quenching using Varenicline (1 uM var, first column): 9.471
- YFP fluorescence quenching using Varenicline (1 uM var, second column): 7.505
- YFP fluorescence quenching using TC-6987 (3 uM tc6987): −8.32
- YFP fluorescence quenching using TC-6987 (5 uM tc6987): −2.13
- YFP fluorescence quenching using Facinicline (10 uM fac): 79.06
- YFP fluorescence quenching using TC-6987 (10 uM tc6987): 0.13
- YFP fluorescence quenching using CNL002 (30 uM CNL002): 57.43%
- YFP fluorescence quenching using AZD-0328 (30 uM azd0328): 80.96%
- YFP fluorescence quenching using Facinicline (30 uM fac): 81.06
- YFP fluorescence quenching using TC-6987 (30 uM tc6987): −6.86
- YFP fluorescence quenching using TC-6987 (50 uM tc6987): −9.5
- YFP fluorescence quenching using TC-6987 (100 uM tc6987): −10.98
- YFP fluorescence quenching using TC-6987 (300 uM tc6987): −12.16
- YFP fluorescence quenching using TC-6987 (500 uM tc6987): −2.41
- percent quench of YFP fluorescence, 30 nM TC-6683: −13.84%
- percent quench of YFP fluorescence, 300 nM TC-6683: −20.66%
- percent quench of YFP fluorescence, 3 uM TC-6683: −17.86%
- percent quench of YFP fluorescence, 30 uM TC-6683: −18.91%
- percent quench of YFP fluorescence, 100 uM TC-6683: −16.88%
- percent quench of YFP fluorescence, 10 uM ach: −9.13%
- percent quench of YFP fluorescence, 100 uM ach: −9.29%
- percent quench of YFP fluorescence, 1 mM ach: 0.57%
- percent quench of YFP fluorescence, 3 mM ach: 35.37%
